In patent US20140356376:

Assays:
[1] = biological target: thioFAB 4497 MP-LAFAA-QSY7
[2] = biological target: thioFAB 4497 MP-LAFGA-QSY7
[3] = biological target: thio-S4497 HC v1-MP-LAFG-PABC-(piperazinoBOR) AAC-193

B1: staphopain A (protein)
chain: YNEQYVNKLENFKIRETQGNNGWCAGYTMSALLNATYNTNKYHAEAVMRFLHPNLQGQQFQFTGLTPREMIYFEQTQGRSPQLLNRMTTYNEVDNLTKNNKGIAILGSRVESRNGMHAGHAMAVVGNAKLNNGQEVIIIWNPWDNGFMTQDAKNNVIPVSNGDHYQWYSSIYGY
B1 gave a Percent cleavage pH 7.2 [1] of 23%, a Percent cleavage pH 7.2 [2] of 38% and a Percent cleavage pH 5 [3] of 100%. It also gave a Percent cleavage pH 7.2 [3] of 46%.
